In patent publication US20210171613A1 (NATIONAL RESEARCH COUNCIL OF CANADA, published 2021):
Residue numbers refer to the chain shown, from its start. Numbers in names are those of the source.

B1: Parent A26.8 VHH (VHH, not shown: small tags and cut ends)
VHH: QVKLEESGGGLVQAGGSLRLSCAASERTFSRYPVAWFRQAPGAEREFVAVISSTGTSTYYADSVKGRFTISRDNAKVTVYLQMNNLKREDTAVYFCAVNSQRTRLQDPNEYDYWGQGTQVTVSS
B2: A26.8 VHH mutant Q106F (VHH, not shown: small tags and cut ends)
VHH: B1 VHH with Q106F
B3: A26.8 VHH mutant Q106L (VHH, not shown: small tags and cut ends)
VHH: B1 VHH with Q106L
B4: A26.8 VHH mutant Q106W (VHH, not shown: small tags and cut ends)
VHH: B1 VHH with Q106W
B5: A26.8 VHH mutant Q106Y (VHH, not shown: small tags and cut ends)
VHH: B1 VHH with Q106Y
B6: A26.8 VHH mutant S53R (VHH, not shown: small tags and cut ends)
VHH: B1 VHH with S53R
B7: A26.8-T56R, Q101K, T103R (VHH, not shown: small tags and cut ends)
VHH: B1 VHH with T56R, Q101K, T103R
notes: also called lead triple mutant; best triple mutant
B8: A26.8-T56R, T103R (VHH, not shown: small tags and cut ends)
VHH: B1 VHH with T56R, T103R
notes: also called lead double mutant; best double mutant

Columns and labels:
[1] = molecular target: T1, Clostridium difficile toxin A (TcdA) (Clostridium difficile, UniProt P16154 1-2710); assay: cell-based or functional assay
[2] = molecular target: T1, Clostridium difficile toxin A (TcdA); assay: SPR (Biacore 3000), VHH over immobilized TcdA; binding free energy difference relative to parent VHH
Method: (§1) Before surface plasmon resonance (SPR) binding experiments, IMAC-purified VHHs were subjected to de-salting and further purification by size-exclusion chromatography (SEC). Approximately 500 μg of each VHH was injected over a Superdex 75 Increase 10/300 GL SEC column (GE Healthcare) in Biacore running buffer HBS-EP (10 mM HEPES pH 7.4, 150 mM NaCl, 3 mM EDTA, 0.005% (v/v) P20; GE Healthcare) under the control of an ÄKTA FPLC at 0.8 mL/min. Monomeric VHH fractions were collected and analyzed for binding to TcdA using a Biacore 3000 SPR instrument (GE Healthcare). Approximately 4,500 resonance units (RUs) of TcdA (List Biological Laboratories, Campbell, Calif.) were immobilized on a CM5 sensor chip (GE Healthcare) using the conditions previously described (Hussack et al, 2011). HBS-EP running buffer was used for all binding studies and regeneration of TcdA surfaces. Next, various dilution ranges of VHHs (as low as 10 nM-0.5 nM to as high as 5 μM-50 nM) were injected over immobilized TcdA at a flow rate of 40 μL/min with 120 s contact time and 600 s dissociation. Reference-subtracted sensorgrams were analyzed with BIAevaluation software (GE Healthcare) and fit to a 1:1 binding model. In cases where rapid kₒₙ and koff rate constants were observed, equilibrium dissociation constants (KDs) were determined by steady-state analysis.

[3] = molecular target: T1, Clostridium difficile toxin A (TcdA); assay: SPR on immobilized TcdA
Method: as §1
The location of these mutations relative to the antigen epitope is illustrated in FIG. 2C.

[4] = molecular target: T1, Clostridium difficile toxin A (TcdA); assay: SPR (Biacore 3000), VHH over immobilized TcdA, steady-state analysis
Method: as §1

[5] = molecular target: T1, Clostridium difficile toxin A (TcdA); assay: SPR (Biacore 3000), VHH over immobilized TcdA; ratio of parent KD to mutant KD
Method: as §1

[6] = molecular target: T1, Clostridium difficile toxin A (TcdA); assay: SPR (Biacore 3000), VHH over immobilized TcdA, 1:1 fit
Method: as §1

T1 sequence (P16154 whole entry): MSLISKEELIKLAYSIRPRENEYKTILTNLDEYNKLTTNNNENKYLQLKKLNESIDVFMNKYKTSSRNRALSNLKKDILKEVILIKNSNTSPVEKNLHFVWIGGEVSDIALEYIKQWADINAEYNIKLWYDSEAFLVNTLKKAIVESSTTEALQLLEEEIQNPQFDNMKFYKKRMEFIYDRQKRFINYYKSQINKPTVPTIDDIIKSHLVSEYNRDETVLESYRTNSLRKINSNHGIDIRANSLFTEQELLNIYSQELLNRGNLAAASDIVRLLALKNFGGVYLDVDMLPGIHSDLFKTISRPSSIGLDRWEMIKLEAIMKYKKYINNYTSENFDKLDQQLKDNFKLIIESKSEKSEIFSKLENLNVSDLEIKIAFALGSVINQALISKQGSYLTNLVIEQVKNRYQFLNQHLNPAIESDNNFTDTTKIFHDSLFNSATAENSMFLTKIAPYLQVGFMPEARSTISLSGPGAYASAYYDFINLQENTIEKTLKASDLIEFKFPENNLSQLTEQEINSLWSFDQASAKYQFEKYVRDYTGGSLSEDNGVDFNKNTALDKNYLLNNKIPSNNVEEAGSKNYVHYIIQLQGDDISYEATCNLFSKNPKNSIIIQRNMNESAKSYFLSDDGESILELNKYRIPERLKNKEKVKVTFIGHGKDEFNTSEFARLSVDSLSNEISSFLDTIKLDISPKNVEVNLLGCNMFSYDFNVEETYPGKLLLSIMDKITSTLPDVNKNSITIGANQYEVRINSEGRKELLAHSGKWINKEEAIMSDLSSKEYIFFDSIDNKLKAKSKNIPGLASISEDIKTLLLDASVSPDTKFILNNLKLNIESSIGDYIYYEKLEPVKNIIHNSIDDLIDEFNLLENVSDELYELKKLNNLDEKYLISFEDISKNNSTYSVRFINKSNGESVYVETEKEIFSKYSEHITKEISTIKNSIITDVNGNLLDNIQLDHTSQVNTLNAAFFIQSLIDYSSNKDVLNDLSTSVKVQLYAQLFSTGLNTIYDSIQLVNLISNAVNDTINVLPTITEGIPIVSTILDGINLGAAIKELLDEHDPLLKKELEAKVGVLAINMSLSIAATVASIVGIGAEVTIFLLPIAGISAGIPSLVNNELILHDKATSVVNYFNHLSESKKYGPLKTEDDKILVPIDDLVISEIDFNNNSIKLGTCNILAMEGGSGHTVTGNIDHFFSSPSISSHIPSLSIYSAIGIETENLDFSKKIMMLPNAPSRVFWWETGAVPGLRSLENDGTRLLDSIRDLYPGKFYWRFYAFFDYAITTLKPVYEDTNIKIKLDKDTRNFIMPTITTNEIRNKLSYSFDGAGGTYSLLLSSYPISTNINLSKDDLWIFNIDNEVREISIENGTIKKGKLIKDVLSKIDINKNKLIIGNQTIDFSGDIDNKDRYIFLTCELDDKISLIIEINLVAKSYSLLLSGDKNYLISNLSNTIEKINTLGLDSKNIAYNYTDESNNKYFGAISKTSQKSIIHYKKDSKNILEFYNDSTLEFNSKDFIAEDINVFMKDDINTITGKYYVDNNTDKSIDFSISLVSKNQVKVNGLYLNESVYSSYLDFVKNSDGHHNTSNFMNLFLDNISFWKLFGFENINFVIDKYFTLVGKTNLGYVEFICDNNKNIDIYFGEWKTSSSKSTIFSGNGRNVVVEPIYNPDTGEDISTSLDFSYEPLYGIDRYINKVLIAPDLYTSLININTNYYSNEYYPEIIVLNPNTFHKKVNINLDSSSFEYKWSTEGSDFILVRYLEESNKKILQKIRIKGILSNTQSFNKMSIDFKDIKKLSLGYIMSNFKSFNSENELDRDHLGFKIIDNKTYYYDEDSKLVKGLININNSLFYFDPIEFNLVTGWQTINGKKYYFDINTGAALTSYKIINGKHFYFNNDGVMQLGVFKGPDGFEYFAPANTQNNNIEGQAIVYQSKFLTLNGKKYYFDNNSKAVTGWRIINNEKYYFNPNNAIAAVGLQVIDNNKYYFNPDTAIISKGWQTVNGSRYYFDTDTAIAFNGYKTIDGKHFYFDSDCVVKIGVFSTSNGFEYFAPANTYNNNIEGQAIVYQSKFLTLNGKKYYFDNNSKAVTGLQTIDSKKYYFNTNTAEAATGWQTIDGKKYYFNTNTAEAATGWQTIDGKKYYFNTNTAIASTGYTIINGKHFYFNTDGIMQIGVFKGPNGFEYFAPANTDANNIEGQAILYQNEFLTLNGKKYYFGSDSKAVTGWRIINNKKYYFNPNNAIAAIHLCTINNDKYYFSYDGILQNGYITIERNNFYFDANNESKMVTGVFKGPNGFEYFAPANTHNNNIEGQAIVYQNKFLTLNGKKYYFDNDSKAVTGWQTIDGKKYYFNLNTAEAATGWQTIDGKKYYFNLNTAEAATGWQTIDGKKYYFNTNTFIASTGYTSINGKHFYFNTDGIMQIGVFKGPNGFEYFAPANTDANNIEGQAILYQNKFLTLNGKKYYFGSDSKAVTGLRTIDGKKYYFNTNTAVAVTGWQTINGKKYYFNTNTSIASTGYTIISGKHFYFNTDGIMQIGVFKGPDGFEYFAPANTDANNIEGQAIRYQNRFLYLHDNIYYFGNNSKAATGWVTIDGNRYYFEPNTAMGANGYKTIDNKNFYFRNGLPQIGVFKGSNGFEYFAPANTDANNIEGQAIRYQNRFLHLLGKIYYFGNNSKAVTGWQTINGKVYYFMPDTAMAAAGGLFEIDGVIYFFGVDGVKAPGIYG

Binder	TcdA IC50, TcdA-induced Vero cell cytotoxicity (WST-1) [1]	maximal TcdA inhibition level [1]	ΔΔG [2]	fold decrease in affinity relative to parent A26.8 VHH [3]	Kd [4]	KD^WT/KD [5]	fold increase in neutralization potency relative to parent A26.8 VHH [1]	fold change in kon relative to original A26.8 [3]	fold improvement of KD relative to original A26.8 [3]	Kd [6]	koff [6]	kon [6]	fold affinity improvement relative to parent A26.8 VHH [3]	fold increase in kon relative to parent A26.8 VHH [3]
B1	~70 nM	~60%	–	–	–	–	–	–	–	–	–	–	–	–
B2	–	–	3.28 kcal/mol	30 to 300 fold	5130 nM	0.004	–	–	–	–	–	–	–	–
B3	–	–	2.04 kcal/mol	30 to 300 fold	612 nM	0.03	–	–	–	–	–	–	–	–
B4	–	–	2.55 kcal/mol	–	1480 nM	0.01	–	–	–	–	–	–	–	–
B5	–	–	2.82 kcal/mol	–	2320 nM	0.008	–	–	–	–	–	–	–	–
B6	–	–	1.45 kcal/mol	~10 fold	224 nM	0.08	–	–	–	–	–	–	–	–
B7	~12 nM	~70%	-1.31 kcal/mol	–	–	9.4	6 fold	~7 fold	10 fold	1.98 nM	0.0241 s⁻¹	1.23e+07 M⁻¹ s⁻¹	–	–
B8	~12 nM	~70%	-1.22 kcal/mol	–	–	8.1	6 fold	–	–	2.32 nM	0.0193 s⁻¹	8.33e+06 M⁻¹ s⁻¹	8 fold	> 6 fold
